Reference: patent US20210196796A1 (SYNTHEKINE, published 2021)

T1: orthogonal hCD122 receptor (hoRb), hCD122 with H133D and Y134F (human, UniProt P14784 27-550)
T1 sequence: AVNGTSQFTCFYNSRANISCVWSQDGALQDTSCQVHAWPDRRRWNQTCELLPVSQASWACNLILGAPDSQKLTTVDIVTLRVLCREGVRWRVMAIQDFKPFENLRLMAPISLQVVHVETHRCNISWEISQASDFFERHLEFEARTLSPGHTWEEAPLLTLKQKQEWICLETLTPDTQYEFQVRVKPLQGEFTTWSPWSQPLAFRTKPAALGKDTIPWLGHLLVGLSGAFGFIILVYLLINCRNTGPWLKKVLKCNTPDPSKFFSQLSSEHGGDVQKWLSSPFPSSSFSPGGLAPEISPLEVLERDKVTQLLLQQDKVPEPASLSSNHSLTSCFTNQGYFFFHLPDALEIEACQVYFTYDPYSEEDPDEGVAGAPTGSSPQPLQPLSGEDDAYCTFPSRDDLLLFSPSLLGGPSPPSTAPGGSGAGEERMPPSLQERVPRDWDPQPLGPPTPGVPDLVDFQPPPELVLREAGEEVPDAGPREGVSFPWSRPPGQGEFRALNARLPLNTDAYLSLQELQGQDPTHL


Columns and labels:
[1] = target: T1, orthogonal hCD122 receptor (hoRb), …; experiment: cell-based or functional assay
[2] = target: T1, orthogonal hCD122 receptor (hoRb), …; experiment: cell-based or functional assay; remark: listed apart in the source

Binder | NKL Ortho Proliferation Signal 1:2 [1] | NKL Ortho Proliferation Signal 1:10 [1] | NKL Ortho Proliferation Signal 1:50 [1] | Relative Proliferation Fold Change NKL 1:2 [1] [fold] | Relative Proliferation Fold Change NKL 1:10 [1] [fold] | Relative Proliferation Fold Change NKL 1:50 [1] [fold] | 3F8 Ortho Proliferation Signal 1:2 [2] [cts/min] | 3F8 Ortho Proliferation Signal 1:10 [2] [cts/min] | 3F8 Ortho Proliferation Signal 1:50 [2] [cts/min] | Relative Proliferation Fold Change 3F8 1:2 [2] [fold] | Relative Proliferation Fold Change 3F8 1:10 [2] [fold] | Relative Proliferation Fold Change 3F8 1:50 [2] [fold]
R81I, SQVLKA (ligand) APTSSSTKKTQLQLSQLLVLLKAILNGINNYKNPKLTRMLTFKFYMPKKATELKHLQCLEEELKPLEEVLNLAQSKNFHLIPRDLISNINVIVLELKGSETTFMCEYADETATIVEFLNRWITFCQSIISTLT | 52800 | 58000 | 27300 | 3.84 | 3.85 | 1.92 | 40000 | 46000 | 20900 | 55.9 | 48.8 | 49.4
N88Q, SQVLKA (ligand) APTSSSTKKTQLQLSQLLVLLKAILNGINNYKNPKLTRMLTFKFYMPKKATELKHLQCLEEELKPLEEVLNLAQSKNFHLRPRDLISQINVIVLELKGSETTFMCEYADETATIVEFLNRWITFCQSIISTLT | 4980 | 6960 | 6240 | 0.43 | 0.53 | 0.5 | 644 | 914 | 1070 | 1.25 | 0.84 | 0.6
R81D, SQVLKA (ligand) APTSSSTKKTQLQLSQLLVLLKAILNGINNYKNPKLTRMLTFKFYMPKKATELKHLQCLEEELKPLEEVLNLAQSKNFHLDPRDLISNINVIVLELKGSETTFMCEYADETATIVEFLNRWITFCQSIISTLT | 71800 | 73800 | 44400 | 3.64 | 4.35 | 3.07 | 39300 | 30000 | 10400 | 7.51 | 13.6 | 11.5
L85V, SQVLKA (ligand) APTSSSTKKTQLQLSQLLVLLKAILNGINNYKNPKLTRMLTFKFYMPKKATELKHLQCLEEELKPLEEVLNLAQSKNFHLRPRDVISNINVIVLELKGSETTFMCEYADETATIVEFLNRWITFCQSIISTLT | 56300 | 49600 | 24200 | 3.94 | 3.34 | 1.71 | 44300 | 41300 | 18900 | 39.9 | 44.6 | 14.3
N88E, SQVLKA (ligand) APTSSSTKKTQLQLSQLLVLLKAILNGINNYKNPKLTRMLTFKFYMPKKATELKHLQCLEEELKPLEEVLNLAQSKNFHLRPRDLISEINVIVLELKGSETTFMCEYADETATIVEFLNRWITFCQSIISTLT | 6410 | 7090 | 6480 | 0.49 | 0.53 | 0.51 | 326 | 588 | 850 | 1 | 1.2 | 1.44
I86V, SQVLKA (ligand) APTSSSTKKTQLQLSQLLVLLKAILNGINNYKNPKLTRMLTFKFYMPKKATELKHLQCLEEELKPLEEVLNLAQSKNFHLRPRDLVSNINVIVLELKGSETTFMCEYADETATIVEFLNRWITFCQSIISTLT | 39900 | 38000 | 18400 | 3.82 | 2.67 | 1.42 | 34000 | 32600 | 15100 | 0.8 | 3.76 | 3.66
R81Y, SQVLKA (ligand) APTSSSTKKTQLQLSQLLVLLKAILNGINNYKNPKLTRMLTFKFYMPKKATELKHLQCLEEELKPLEEVLNLAQSKNFHLYPRDLISNINVIVLELKGSETTFMCEYADETATIVEFLNRWITFCQSIISTLT | 59800 | 77900 | 49500 | 3.64 | 4.64 | 3.43 | 35800 | 46000 | 16500 | 4.14 | 16.6 | 17.6

Further lines, results first:

NKL Ortho Proliferation Signal 1:2 [1] | NKL Ortho Proliferation Signal 1:10 [1] | NKL Ortho Proliferation Signal 1:50 [1] | Relative Proliferation Fold Change NKL 1:2 [1] [fold] | Relative Proliferation Fold Change NKL 1:10 [1] [fold] | Relative Proliferation Fold Change NKL 1:50 [1] [fold] | 3F8 Ortho Proliferation Signal 1:2 [2] [cts/min] | 3F8 Ortho Proliferation Signal 1:10 [2] [cts/min] | 3F8 Ortho Proliferation Signal 1:50 [2] [cts/min] | Relative Proliferation Fold Change 3F8 1:2 [2] [fold] | Relative Proliferation Fold Change 3F8 1:10 [2] [fold] | Relative Proliferation Fold Change 3F8 1:50 [2] [fold] | Binder
62400 | 68800 | 31900 | 4.84 | 4.09 | 2.1 | 28600 | 32200 | 22000 | 46.4 | 39 | 24 | ΔR81, SQVLKA (ligand) APTSSSTKKTQLQLSQLLVLLKAILNGINNYKNPKLTRMLTFKFYMPKKATELKHLQCLEEELKPLEEVLNLAQSKNFHLPRDLISNINVIVLELKGSETTFMCEYADETATIVEFLNRWITFCQSIISTLT
4610 | 7470 | 6690 | 0.42 | 0.59 | 0.58 | 486 | 580 | 666 | 2.59 | 0.79 | 1.33 | Δ88N, SQVLKA (ligand) APTSSSTKKTQLQLSQLLVLLKAILNGINNYKNPKLTRMLTFKFYMPKKATELKHLQCLEEELKPLEEVLNLAQSKNFHLRPRDLISINVIVLELKGSETTFMCEYADETATIVEFLNRWITFCQSIISTLT
31800 | 23500 | 12200 | 2.38 | 1.6 | 0.86 | 30300 | 24500 | 8130 | 125 | 26.5 | 13.2 | ΔL14, SQVLKA (ligand) APTSSSTKKTQLQSQLLVLLKAILNGINNYKNPKLTRMLTFKFYMPKKATELKHLQCLEEELKPLEEVLNLAQSKNFHLRPRDLISNINVIVLELKGSETTFMCEYADETATIVEFLNRWITFCQSIISTLT
60800 | 64600 | 32300 | 4 | 3.73 | 1.99 | 38900 | 34800 | 16000 | 30.5 | 15.1 | 7.52 | ΔT3, SQVLKA (ligand) APSSSTKKTQLQLSQLLVLLKAILNGINNYKNPKLTRMLTFKFYMPKKATELKHLQCLEEELKPLEEVLNLAQSKNFHLRPRDLISNINVIVLELKGSETTFMCEYADETATIVEFLNRWITFCQSIISTLT
8530 | 5580 | 4420 | 0.86 | 0.53 | 0.44 | 12500 | 5140 | 2850 | 35.6 | 10 | 2.93 | V91R, SQVLKA (ligand) APTSSSTKKTQLQLSQLLVLLKAILNGINNYKNPKLTRMLTFKFYMPKKATELKHLQCLEEELKPLEEVLNLAQSKNFHLRPRDLISNINRIVLELKGSETTFMCEYADETATIVEFLNRWITFCQSIISTLT
